Reference: paper PMC2861366 (Biochemistry, 2010)
Where “and” joins values, the source holds several entries; their conditions need not be identical. Equal values may be shown once. Read-outs that look alike come from different tables or passages of the source.

B1: E. coli PriA helicase (enzyme, UniProt P17888 1-732, looked up)
chain: MPVAHVALPVPLPRTFDYLLPEGMTVKAGCRVRVPFGKQQERIGIVVSVSDASELPLNELKAVVEVLDSEPVFTHSVWRLLLWAADYYHHPIGDVLFHALPILLRQGRPAANAPMWYWFATEQGQAVDLNSLKRSPKQQQALAALRQGKIWRDQVATLEFNDAALQALRKKGLCDLASETPEFSDWRTNYAVSGERLRLNTEQATAVGAIHSAADTFSAWLLAGVTGSGKTEVYLSVLENVLAQGKQALVMVPEIGLTPQTIARFRERFNAPVEVLHSGLNDSERLSAWLKAKNGEAAIVIGTRSALFTPFKNLGVIVIDEEHDSSYKQQEGWRYHARDLAVYRAHSEQIPIILGSATPALETLCNVQQKKYRLLRLTRRAGNARPAIQHVLDLKGQKVQAGLAPALITRMRQHLQADNQVILFLNRRGFAPALLCHDCGWIAECPRCDHYYTLHQAQHHLRCHHCDSQRPVPRQCPSCGSTHLVPVGLGTEQLEQTLAPLFPGVPISRIDRDTTSRKGALEQQLAEVHRGGARILIGTQMLAKGHHFPDVTLVALLDVDGALFSADFRSAERFAQLYTQVAGRAGRAGKQGEVVLQTHHPEHPLLQTLLYKGYDAFAEQALAERRMMQLPPWTSHVIVRAEDHNNQHAPLFLQQLRNLILSSPLADEKLWVLGPVPALAPKRGGRWRWQILLQHPSRVRLQHIINGTLALINTIPDSRKVKWVLDVDPIEG

Legend:
E. coli PriA helicase [1] = biological target: B1; experiment: ITC
[2] = biological target: T1, χ subunit of DNA polymerase III holoenzyme (E. coli, UniProt P28905 1-147); experiment: ITC
E. coli PriA helicase [3] = biological target: B1; experiment: ITC; remark: listed apart in the source
[4] = biological target: T1, χ subunit of DNA polymerase III …; experiment: ITC; remark: listed apart in the source
E. coli PriA helicase [5] = biological target: B1; experiment: ITC; remark: listed apart in the source
E. coli PriA helicase [6] = biological target: B1; experiment: ITC; remark: listed apart in the source
E. coli PriA helicase [7] = biological target: B1; experiment: ITC; remark: listed apart in the source
[8] = biological target: T1, χ subunit of DNA polymerase III …; experiment: ITC; remark: listed apart in the source
E. coli PriA helicase [9] = biological target: B1; experiment: ITC; remark: listed apart in the source
[10] = biological target: T1, χ subunit of DNA polymerase III …; experiment: ITC; remark: listed apart in the source
[11] = biological target: E. coli single stranded DNA binding (SSB) protein (E. coli, UniProt P0AGE0 1-178); experiment: AUC
E. coli single stranded DNA binding (SSB) protein, sequence (P0AGE0 whole entry): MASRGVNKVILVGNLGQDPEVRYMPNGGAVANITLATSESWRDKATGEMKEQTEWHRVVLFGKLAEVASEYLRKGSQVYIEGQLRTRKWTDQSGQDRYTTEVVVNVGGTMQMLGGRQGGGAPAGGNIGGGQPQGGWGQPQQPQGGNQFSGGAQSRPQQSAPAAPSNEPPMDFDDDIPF

T1 sequence (P28905 whole entry): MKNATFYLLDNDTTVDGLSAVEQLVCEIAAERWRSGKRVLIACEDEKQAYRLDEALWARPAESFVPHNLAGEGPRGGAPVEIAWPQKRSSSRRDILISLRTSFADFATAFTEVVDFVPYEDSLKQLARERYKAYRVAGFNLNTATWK

Binder | Ka (E. coli PriA helicase [1]) | dH (E. coli PriA helicase [1]) | stoichiometry N (E. coli PriA helicase [1]) | Ka [2] | dH [2] | stoichiometry N [2] | Ka (E. coli PriA helicase [3]) | dH (E. coli PriA helicase [3]) | stoichiometry N (E. coli PriA helicase [3]) | Ka [4] | dH [4] | stoichiometry N [4] | Ka (E. coli PriA helicase [5]) | dH (E. coli PriA helicase [5]) | stoichiometry N (E. coli PriA helicase [5]) | also measured
PSNEPPMDFDDDIPF [P15, synthetic peptide of the last 15 amino acids of the SSB C-terminus] | 2.7e+06 M⁻¹ | -20.7 ± 0.8 kcal/mol | 0.9 ± 0.02 | 1.5e+06 M⁻¹ | -9.5 ± 0.3 kcal/mol | 0.91 ± 0.02 | 1.6e+06 M⁻¹ | -7 ± 0.5 kcal/mol | 1.03 ± 0.06 | 800000 M⁻¹ | -7.7 ± 0.4 kcal/mol | 0.88 ± 0.04 | 360000 M⁻¹ | -14 ± 0.6 kcal/mol | 0.92 ± 0.03 | –
WMDFDDDIPF [WP9, modified P9 peptide containing a Trp residue on the N terminal side] | 1.6e+06 M⁻¹ | -14.5 ± 0.5 kcal/mol | 0.95 ± 0.02 | 1.2e+06 M⁻¹ | -8 ± 0.3 kcal/mol | 1.02 ± 0.03 | – | – | – | – | – | – | 230000 M⁻¹ | -13 ± 1.3 kcal/mol | 1.1 ± 0.1 | Ka (E. coli PriA helicase [6]): 225000 M⁻¹; dH (E. coli PriA helicase [6]): -13.7 ± 0.2 kcal/mol; stoichiometry N (E. coli PriA helicase [6]): 1.01 ± 0.1; Ka (E. coli PriA helicase [7]): 410000 M⁻¹ and 404000 M⁻¹; dH (E. coli PriA helicase [7]): -13.9 kcal/mol and -14.4 kcal/mol; stoichiometry N (E. coli PriA helicase [7]): 0.91 ± 0.11; Ka [8]: 300000 M⁻¹; dH [8]: -9.2 ± 0.4 kcal/mol; stoichiometry N [8]: 0.96 ± 0.03; Ka (E. coli PriA helicase [9]): 3.4e+06 M⁻¹; dH (E. coli PriA helicase [9]): -17.6 ± 0.2 kcal/mol; Ka [10]: 1.6e+06 M⁻¹
B1 | – | – | – | – | – | – | – | – | – | – | – | – | – | – | – | stoichiometry N [11]: ≥ 3
MDFDDDIPF [P9, synthetic peptide of the last 9 amino acids of the SSB C-terminus] | – | – | – | 1.6e+06 M⁻¹ | -7.9 ± 0.4 kcal/mol | 1 ± 0.1 | 2e+06 M⁻¹ | -6.7 ± 0.3 kcal/mol | 0.89 ± 0.05 | 800000 M⁻¹ | -8.2 ± 0.4 kcal/mol | 0.92 ± 0.04 | 180000 M⁻¹ | -17.3 ± 0.6 kcal/mol | 0.81 ± 0.12 | –
